What all share (conditions): reference: wild-type YFP-p120-1A; sites Y335
In one assay the target is E-cadherin (UniProt P12830). The assay can be described thus: anti-YFP immunoprecipitation, E-cadherin blot.
A further assay deals with VAV2 (endogenous) (UniProt P52735). The assay can be described thus: anti-YFP immunoprecipitation, VAV2 blot.
The target in the next assay is cortactin (UniProt Q14247). The assay can be described thus: anti-YFP immunoprecipitation, cortactin blot.

As to “p120-1A (transfected YFP- or HA-tagged) (from UniProt P30999) Y335F”, the “binding against the reference” value in the assay with E-cadherin is on record as “stronger”; with VAV2 (endogenous), “weaker”; in the assay with cortactin it was “weaker”.

(Values after article PMC4007762.)
